# Laboratory results as given in patent US20240002500A1 (GUANGDONG FAPON BIOPHARMA, published 2024).
# T1: full-length human TIGIT on cells (human, UniProt Q495A1 22-244)
# T1 construct: whole, on cells; The same protein is used for CHO-hTIGIT, PBMC and NK92-hTIGIT; the cells are named under assay; also called CHO-hTIGIT; hTIGIT
# T1 sequence (looked up): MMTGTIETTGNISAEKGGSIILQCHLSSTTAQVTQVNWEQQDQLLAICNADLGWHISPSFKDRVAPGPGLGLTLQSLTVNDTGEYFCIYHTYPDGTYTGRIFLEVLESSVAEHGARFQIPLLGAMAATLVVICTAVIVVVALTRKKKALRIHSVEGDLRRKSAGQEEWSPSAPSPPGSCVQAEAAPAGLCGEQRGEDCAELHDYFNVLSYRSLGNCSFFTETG
# T2: hTIGIT-hFc (human, UniProt Q495A1 22-141)
# T2 construct: also called antigen protein hTIGIT-hFc; human TIGIT recombinant protein carrying a human Fc tag; not shown: human Fc tag
# T2 sequence (looked up): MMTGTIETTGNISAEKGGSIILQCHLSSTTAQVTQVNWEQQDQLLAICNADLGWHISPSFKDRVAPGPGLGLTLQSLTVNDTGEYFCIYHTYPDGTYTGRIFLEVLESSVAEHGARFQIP
# Columns and labels:
# [1] = molecular target: T1, full-length human TIGIT on cells; experiment: FACS blocking: antibody on CHO-hTIGIT cells, then hPVR-hFc, PE anti-human IgG Fc; blocked ligand hPVR-hFc
# Experimental: The CHO-engineered cells CHO-hTIGIT cells recombinantly expressing full-length human TIGIT were counted, and centrifugated at 300 g for 5 min, resuspended with an FCM buffer, and cell density was adjusted to 4E+06 cell/mL for later use. […] According to an experimental design, in each well, 50 μL of the antibody and 50 μL of the cell (the volume of each cell added into a 96-well V-shaped plate being 2E+05 cell/well) were respectively added in the 96-well V-shaped plate; and incubation was performed in dark on ice for 30 min. The ligand protein was added to the 96-well V-shaped plate (in 50 μL/well); and incubation was performed in dark on ice for 30 min. Centrifugation (300 g/5 min) was performed; supernatant was discarded; 200 μL of the FCM buffer was added for washing once; centrifugation (300 g/5 min) was performed; and the supernatant was discarded. Secondary antibodies (PE anti-human IgG Fc, 1:500 dilution) were added to the 96-well V-shaped plate (in 100 μL/well); and incubation was performed in dark on ice for 30 min. Centrifugation (300 g/5 min) was performed; supernatant was discarded; 200 μL of the FCM buffer was added for washing once; centrifugation (300 g/5 min) was performed; and the supernatant was discarded. 100 μL of the 1×PBS was added for resuspending, and on-machine detection was performed.
# [2] = molecular target: T3, full-length cynoTIGIT on CHO cells (monkey (cyno), UniProt A0A7N9I9V4 89-312); experiment: FACS titration on CHO-cynoTIGIT cells, PE goat anti-mouse IgG
# T3 construct: whole, on cells; also called CHO-cynoTIGIT; monkey TIGIT
# Experimental: In order to verify that the anti-human TIGIT antibody binds to a monkey TIGIT, the following experiments were specifically performed. The CHO-engineered cell CHO-cynoTIGIT cells recombinantly expressing full-length […] cynoTIGIT were counted; centrifugated at 300 g for 5 min; resuspended with an FCM buffer; and cell density was adjusted to 4E+06 cell/mL for later use.
# Samples to be detected (including a positive control antibody and a mouse monoclonal antibody) were diluted with the FCM buffer to 20 μg/mL, and then the FCM buffer was used to perform 3× serial dilutions of 12 concentration points; and an isotype control antibody was diluted with the FCM buffer to 20 μg/mL. According to an experimental design, in each well, 50 μL of the antibody and 50 μL of the cell (the volume of each cell added into a 96-well V-shaped plate being 2E+05 cell/well) were respectively added in the 96-well V-shaped plate; and incubation was performed in dark on ice for 30 min. Centrifugation (300 g/5 min) was performed; supernatant was discarded; 200 μL of the FCM buffer was added for washing once; centrifugation (300 g/5 min) was performed; and the supernatant was discarded. […] Centrifugation (300 g/5 min) was performed; supernatant was discarded; 200 μL of the FCM buffer was added for washing once; centrifugation (300 g/5 min) was performed; and the supernatant was discarded. 100 μL of the 1×PBS was added for resuspending, and on-machine detection was performed.
# hTIGIT-hFc = molecular target: T2, hTIGIT-hFc; experiment: FACS blocking on U2-OS cells; second row of the table; unit from the y axis
# Experimental: U2-OS cells to be detected (human osteosarcoma cells, naturally and highly expressing PVR and CD112 by means of detection) were counted; centrifugated at 300 g for 5 min; resuspended with an FCM buffer; and cell density was adjusted to 4E+06 cell/mL for later use. […] According to an experimental design, in each well, 50 μL of the antigen protein and 50 μL of the cell (the volume of each cell added into a 96-well V-shaped plate being 2E+05 cell/well) were respectively added in the 96-well V-shaped plate; and incubation was performed in dark on ice for 30 min. Centrifugation (300 g/5 min) was performed; supernatant was discarded; 200 μL of the FCM buffer was added for washing once; centrifugation (300 g/5 min) was performed; and the supernatant was discarded. The antibody was added to the 96-well V-shaped plate (in 100 μL/well); and incubation was performed in dark on ice for 30 min. Centrifugation (300 g/5 min) was performed; supernatant was discarded; 200 μL of the FCM buffer was added for washing once; centrifugation (300 g/5 min) was performed; and the supernatant was discarded. Secondary antibodies (APC anti-human IgG Fc, 1:500 dilution) were added to the 96-well V-shaped plate (in 100 μL/well); and incubation was performed in dark on ice for 30 min. Centrifugation (300 g/5 min) was performed; supernatant was discarded; 200 μL of the FCM buffer was added for washing once; centrifugation (300 g/5 min) was performed; and the supernatant was discarded. 100 μL of the 1×PBS was added for resuspending, and on-machine detection was performed.
# T3 sequence (A0A7N9I9V4 entry or part of it): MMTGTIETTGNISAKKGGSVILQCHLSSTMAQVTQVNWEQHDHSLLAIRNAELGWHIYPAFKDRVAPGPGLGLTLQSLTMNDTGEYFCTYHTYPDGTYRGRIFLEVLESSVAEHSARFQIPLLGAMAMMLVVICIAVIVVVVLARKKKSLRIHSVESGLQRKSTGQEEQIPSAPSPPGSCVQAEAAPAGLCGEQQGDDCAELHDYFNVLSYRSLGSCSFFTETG
IC50 (read off the curve) [1] [nM],EC50 [2] [nM],Span (row head not given) (hTIGIT-hFc) [MFI-APC],Binder
~0.3,0.426,,"Tigit-5 mouse monoclonal antibody (antibody, V domains shown, Mouse monoclonal antibody from hybridoma) VH: QVQLQQPGAELVRPGASVKLSCKASGYSFTSYWMNWVKQRPGQGLEWIGMIRPSDSETRLNQMFKDKATLTVDKSSSTAYMQLSSPTSDDSAVYYCAGIHDYGHGAYWGQGTLVTVSA VL: DIQMIQSPASLSVSVGETVTITCRASENIYSNLAWYQQKQGKSPQLLVYAASHLPDGVPSRFSGSGSGTQYSLKINSLQSEDFGSYYCQHFWGTPRTFGGGTKLEIKR"
,0.354,555,"3Tigit-12 mouse monoclonal antibody (antibody, V domains shown, Mouse monoclonal antibody from hybridoma) VH: QVQLQQSGAELVRPGTSVKMSCKAAGYTFTNYWIGWVKQRPGHGLEWIGDIYPGGGYTNYDEKFKGKATLTADTSSRTAYMQLSSLTSEDSAIYHCVNGGYGSTYGYFDVWGAGTTVTVSS VL: DIVMSQSPSSLPVSVGEKVTMSCKSSQSLLFSSDQKNYLAWYQQKPGQSPKLLIYWASTRESGVPDRLTGSGSGTDFTLTISSVKAEDLAVYYCQQYHKYPFTFGGGTKLEIKR"
~0.3,0.758,580,"3Tigit-16 mouse monoclonal antibody (antibody, V domains shown, Mouse monoclonal antibody from hybridoma) VH: EVQLQQSGPELVKPGASVKMSCKASGFTFTDYFMDWVKQSRGASFEWIGRLNPNNGRTSYNQKFKGKATLTVDKSSSTAYMELNSLTSEDSAVYYCARGDLGRWYFDVWGAGTTVTVSS VL: QIVLTQSPAIMSASPGEKVTMTCSASSSVSYMHWYQQKSGTSPKRWIYDTSKLASGVPTRFSGSGSGTSYSLTISSMEAEDAASYFCQQWSSNSLTFGAGTKLELKR"
~0.3,0.506,585,"3Tigit-29 mouse monoclonal antibody (antibody, V domains shown, Mouse monoclonal antibody from hybridoma) VH: EVQLQQSGPELVKPGASVKISCKASGYTFTDYNMHWVKQSLGKSLEWIGYVNSFNGNTGYSQKFKSKVTLTVDRSSRTAYMDLRSLTSEDSAVFYCARSSRGGFAYWGQGTLVTVSA VL: QIVLTQSPAIMSASPGEKVTMTCSASSSVSYMHWYQQKSGTSPKRWIYDTSKLASGVPARFSGSVSGTSYSLTISSMEAEDAATYYCQQWSSNSLTFGAGTKLELKR"
